Experimental data as given in US11969458B2, “Formula of neuregulin preparation” (Zensun (Shanghai) Science & Technology, Co., Ltd., priority 2014, dated 2024).

Assays:
[1] = Narrow pH stability study of rhNRG-1 (pH 2.3 to 4.3) by RP-HPLC with Arrhenius shelf life prediction; type: physicochemical
Method: In a plastic tube, add the API and DI-water. Mix into a solution containing 0.25 mg/mL rhNRG-1, 4 mM phosphate (from the API) and 0.1M NaCl (from the API). Adjust pH down using a diluted HCl. Once the first target is reached, transfer about 8 mL into a separate plastic tube and continue the titration to hit the next target and collect about 8 mL at each target (i.e. 4.29, 3.90, 3.78, 3.47, 3.36, 3.17, 3.02, 2.85, 2.58, 2.37 and 2.33). For each pH, transfer into glass vials for total 5 vials each level. Place one vial each at 2-8, 25, 40, 50 and 60° C. […]
For 40° C., remove 200 μL and test by HPLC after 0, 5.7, 7 and 11 days
Construct a narrow range pH-rate (stability) profile at each temperature.
Derive an Arrhenius equation and predict shelf life at 5° C.
Using the 40, 50 and 60° C. data for each pH (2.3 to 3.9), an Arrhenius plot was used to predict the shelf life at 5° C. for each pH level. The T90 values calculated from the Arrhenius plots are provided as follows (Table 11): […]

[2] = Forced degradation study of rhNRG-1 (oxidation with H2O2), RP-HPLC; type: physicochemical; settings: for rhNRG-1 conc.: 0.06% H2O2, RT
Method: The API solution was forced to degrade as follow (Table 12):
The samples collected at time point was analyzed by the RP-HPLC.

[3] = pH 2.37, predicted shelf life at 5° C. from Arrhenius plot
[4] = pH 2.58, predicted shelf life at 5° C. from Arrhenius plot
[5] = pH 3.02, predicted shelf life at 5° C. from Arrhenius plot
[6] = pH 3.36, predicted shelf life at 5° C. from Arrhenius plot
[7] = pH 3.90, predicted shelf life at 5° C. from Arrhenius plot

B1: rhNRG-1: proteins or peptides which consist of amino acid sequence of SEQ ID NO: 2 (protein, listed as Homo sapiens)
chain: SHLVKCAEKEKTFCVNGGECFMVKDLSNPSRYLCKCPNEFTGDRCQNYVMASFYKAEELYQ
pH of the best stability, narrow pH study ([1]; pH 2.3 to 4.3): 3.4 (±0.2)
Initial Conc ([1]; pH 2.37 (diluted HCl)): 0.241 mg/mL
% over initial conc. ([1]; pH 2.37, 40° C., 5.7 days): 90%
% over initial conc. ([1]; pH 2.37, 40° C., 7 days): 83%
% over initial conc. ([1]; pH 2.37, 40° C., 11 days): 77%
% over initial conc. ([1]; pH 2.37, 50° C., 5.7 days): 82%
% over initial conc. ([1]; pH 2.37, 50° C., 7 days): 53%
% over initial conc. ([1]; pH 2.37, 50° C., 11 days): 36%
% over initial conc. ([1]; pH 2.37, 60° C., 3.7 days): 55%
% over initial conc. ([1]; pH 2.37, 60° C., 4.7 days): 57%
% over initial conc. ([1]; pH 2.37, 60° C., 5.7 days): 43%
T90 [1, 3]: 166 days
T90 (months) [1, 3]: 6 months
Initial Conc ([1]; pH 2.58 (diluted HCl)): 0.238 mg/mL
% over initial conc. ([1]; pH 2.58, 40° C., 5.7 days): 96%
% over initial conc. ([1]; pH 2.58, 40° C., 7 days): 89%
% over initial conc. ([1]; pH 2.58, 40° C., 11 days): 83%
% over initial conc. ([1]; pH 2.58, 50° C., 5.7 days): 90%
% over initial conc. ([1]; pH 2.58, 50° C., 7 days): 54%
% over initial conc. ([1]; pH 2.58, 50° C., 11 days): 35%
% over initial conc. ([1]; pH 2.58, 60° C., 3.7 days): 62%
% over initial conc. ([1]; pH 2.58, 60° C., 4.7 days): 60%
% over initial conc. ([1]; pH 2.58, 60° C., 5.7 days): 55%
T90 [1, 4]: 317 days
T90 (months) [1, 4]: 11 months
Initial Conc ([1]; pH 3.02 (diluted HCl)): 0.236 mg/mL
% over initial conc. ([1]; pH 3.02, 40° C., 5.7 days): 99%
% over initial conc. ([1]; pH 3.02, 40° C., 7 days): 94%
% over initial conc. ([1]; pH 3.02, 40° C., 11 days): 88%
% over initial conc. ([1]; pH 3.02, 50° C., 5.7 days): 95%
% over initial conc. ([1]; pH 3.02, 50° C., 7 days): 79%
% over initial conc. ([1]; pH 3.02, 50° C., 11 days): 70%
% over initial conc. ([1]; pH 3.02, 60° C., 3.7 days): 70%
% over initial conc. ([1]; pH 3.02, 60° C., 4.7 days): 68%
% over initial conc. ([1]; pH 3.02, 60° C., 5.7 days): 0%
T90 [1, 5]: 612 days
T90 (months) [1, 5]: 20 months
Initial Conc ([1]; pH 3.36 (diluted HCl)): 0.230 mg/mL
% over initial conc. ([1]; pH 3.36, 40° C., 5.7 days): 101%
% over initial conc. ([1]; pH 3.36, 40° C., 7 days): 97%
% over initial conc. ([1]; pH 3.36, 40° C., 11 days): 90%
% over initial conc. ([1]; pH 3.36, 50° C., 5.7 days): 99%
% over initial conc. ([1]; pH 3.36, 50° C., 7 days): 85%
% over initial conc. ([1]; pH 3.36, 50° C., 11 days): 76%
% over initial conc. ([1]; pH 3.36, 60° C., 3.7 days): 77%
% over initial conc. ([1]; pH 3.36, 60° C., 4.7 days): 69%
% over initial conc. ([1]; pH 3.36, 60° C., 5.7 days): 63%
T90 [1, 6]: 1092 days
T90 (months) [1, 6]: 36 months
Initial Conc ([1]; pH 3.90 (diluted HCl)): 0.230 mg/mL
% over initial conc. ([1]; pH 3.90, 40° C., 5.7 days): 101%
% over initial conc. ([1]; pH 3.90, 40° C., 7 days): 96%
% over initial conc. ([1]; pH 3.90, 40° C., 11 days): 88%
% over initial conc. ([1]; pH 3.90, 50° C., 5.7 days): 102%
% over initial conc. ([1]; pH 3.90, 50° C., 7 days): 88%
% over initial conc. ([1]; pH 3.90, 50° C., 11 days): 79%
% over initial conc. ([1]; pH 3.90, 60° C., 3.7 days): 83%
% over initial conc. ([1]; pH 3.90, 60° C., 4.7 days): 81%
% over initial conc. ([1]; pH 3.90, 60° C., 5.7 days): 73%
T90 [1, 7]: 239 days
T90 (months) [1, 7]: 8 months
Initial Conc ([1]; pH 4.29 (diluted HCl)): 0.235 mg/mL
% over initial conc. ([1]; pH 4.29, 50° C., 5.7 days): 100%
% over initial conc. ([1]; pH 4.29, 50° C., 11 days): 78%
% over initial conc. ([1]; pH 4.29, 60° C., 3.7 days): 80%
% over initial conc. ([1]; pH 4.29, 60° C., 5.7 days): 72%
sensitivity to oxidation ([2]; H2O2 exposure): very sensitive to peroxide and prone to oxidation
rhNRG-1 conc. ([2]; Oxidation exposure 0.3 hours): 0.24 mg/mL
rhNRG-1 conc. ([2]; Oxidation exposure 2.4 hours): 0.15 mg/mL
rhNRG-1 conc. ([2]; Oxidation exposure 4.5 hours): 0.10 mg/mL
rhNRG-1 conc. ([2]; Oxidation exposure 7.1 hours): 0.07 mg/mL
